Results published in article PMC10302166, “Molecular basis and dual ligand regulation of tetrameric estrogen receptor α/14-3-3ζ protein complex” (The Journal of Biological Chemistry, 2023).
Changes are numbered by the printed parent chain. Where no end group is shown, it is not given here.

Legend:
[1] = target: T1, ERα-Y537S/14-3-3ζ protein complex (human (from the printed UniProt entry) …, UniProt P03372 302-595; P63104 1-245, Y537S | F591R | P592R, phosphothreonine at T594); experiment: FP; 100 uM E2
[2] = target: ERα-pT594-strep (ERαLBD-F-strep phosphorylated in vitro by PKA) (human (from the printed UniProt entry), UniProt P03372 302-595, S305A | F591R | P592R, phosphothreonine at T594); experiment: FP; 100 uM E2
[3] = target: T2, ERα-pT594-strep (ERαLBD-F-strep phosphorylated in vitro by PKA) (human (from the printed UniProt entry), UniProt P03372 302-595, S305A | F591R | P592R, phosphothreonine at T594); experiment: fluorescence polarisation; fluorescence anisotropy; ERα or complex titrated (2-fold series from 40 μM ERα) to 20 nM fluorescein-labeled SRC1 peptide; DMSO control; 20 mM HEPES pH 7.5, 150 mM NaCl, 10 mM MgCl2, 0.1% Tween20, 0.1% BSA; room temperature; apparent KD (4PL fit); conditions: both partners purified
T2 construct: also called ERα(PKA)-pT594-strep; phosphorylated ERα; source: E. coli NiCo21 (DE3), phosphorylated in vitro with His-PKA-strep and ATP, purified (Ni-NTA, Strep-Tactin, SEC); not shown: His tag, N-terminal, cleaved; SUMO, N-terminal, cleaved; strep-tag, C-terminal, kept
T2 sequence (looked up): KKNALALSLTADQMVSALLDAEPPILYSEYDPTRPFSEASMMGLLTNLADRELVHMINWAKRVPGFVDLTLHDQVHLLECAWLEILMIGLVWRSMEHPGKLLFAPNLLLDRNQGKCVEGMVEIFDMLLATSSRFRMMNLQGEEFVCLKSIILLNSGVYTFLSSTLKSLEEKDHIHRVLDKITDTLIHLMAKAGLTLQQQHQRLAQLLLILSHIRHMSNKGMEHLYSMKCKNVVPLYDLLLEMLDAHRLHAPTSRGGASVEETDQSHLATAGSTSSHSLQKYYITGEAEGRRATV

[4] = target: T3, ERα-Y537S LBD-F-strep (PKA-responsive), without 14-3-3ζ (human (from the printed UniProt entry), UniProt P03372 302-595, S305A | Y537S | F591R | P592R); experiment: as above; conditions: both partners purified
T3 construct: the methods list ERα(PKA)-strep and ERα(PKA)-pT594-strep 'for WT ERα and Y537S mutant'; also called apo ERα-Y537S
T3 sequence (looked up): T2 sequence (looked up) with Y236S

[5] = target: T4, ERαLBD-F-strep (PKA-responsive, non-phosphorylated) (human (from the printed UniProt entry), UniProt P03372 302-595, S305A | F591R | P592R); experiment: as above; conditions: both partners purified
T4 construct: also called ERα-strep; ERα(PKA)-strep; source: E. coli NiCo21 (DE3), purified (Ni-NTA, SUMO cleavage, Strep-Tactin, SEC); not shown: His tag, N-terminal, cleaved; SUMO, N-terminal, cleaved; strep-tag, C-terminal, kept
T4 sequence (looked up): T2 sequence (looked up)

[6] = target: T1, ERα-Y537S/14-3-3ζ protein complex; experiment: FP; DMSO
[7] = target: T2, ERα-pT594-strep (ERαLBD-F-strep …); experiment: fluorescence polarisation; as a10 but in the presence of 100 μM E2; apparent KD; conditions: both partners purified
[8] = target: T3, ERα-Y537S LBD-F-strep (PKA-responsive), …; experiment: as above; conditions: both partners purified
[9] = target: T4, ERαLBD-F-strep (PKA-responsive, …); experiment: as above; conditions: both partners purified

T1 sequence (P63104 whole entry, stated change not applied, one chain of several): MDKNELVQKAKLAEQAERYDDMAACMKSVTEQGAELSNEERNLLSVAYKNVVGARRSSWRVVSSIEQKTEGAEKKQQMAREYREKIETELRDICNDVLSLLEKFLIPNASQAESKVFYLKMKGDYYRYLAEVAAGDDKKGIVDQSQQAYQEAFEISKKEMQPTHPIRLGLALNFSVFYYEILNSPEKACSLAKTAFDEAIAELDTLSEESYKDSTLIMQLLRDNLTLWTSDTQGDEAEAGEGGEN

Kd [1]: 400 nM
Kd [2]: 900 nM
Kd [3]: ~20000 nM
Kd [4]: 1700 nM
Kd [5]: ~20000 nM
Kd [6]: 700 nM
Kd [7]: 1000 nM
Kd [8]: 800 nM
Kd [9]: 1000 nM
Binder: LTERHKILHRLLQEGSPSD (also: fluorescein (FITC) label, position not given here) [fluorescein-labeled SRC-1 cofactor peptide (LXXLL motif of SRC-1/NCoA-1)]
